Results from US20230265151A1, “GIP/GLP1 CO-AGONIST COMPOUNDS” (priority 2020, published 2023).
*1 amine or outer side, *2 acyl side, *3 side chain or, on linkers, in order; H or OH if unused. Where no end group is shown, it is not given here. Side-chain parts run from the residue outwards. [ ]: non-standard residue; d: D form. The star is where a group is joined. αMePhe(2-F) = C[C@](N)(Cc1ccccc1F)C(=O)O; γGlu = O=C(O)[C@H](CCC(=O)[*:2])N[*:1]; C14 diacid = O=C(O)CCCCCCCCCCCCC(=O)*; αMeY = C[C@](N)(Cc1ccc(O)cc1)C(=O)O; αMeL = CC(C)C[C@](C)(N)C(=O)O; Orn = NCCC[C@H](N)C(=O)O; AEEA = NCCOCCOCC(=O)O; Aib = CC(C)(N)C(=O)O

What was measured:
Assay in all cases: cell-based or functional assay
[1] = target: T1, human GIP receptor (human, UniProt P48546 22-466)
T1 sequence (looked up): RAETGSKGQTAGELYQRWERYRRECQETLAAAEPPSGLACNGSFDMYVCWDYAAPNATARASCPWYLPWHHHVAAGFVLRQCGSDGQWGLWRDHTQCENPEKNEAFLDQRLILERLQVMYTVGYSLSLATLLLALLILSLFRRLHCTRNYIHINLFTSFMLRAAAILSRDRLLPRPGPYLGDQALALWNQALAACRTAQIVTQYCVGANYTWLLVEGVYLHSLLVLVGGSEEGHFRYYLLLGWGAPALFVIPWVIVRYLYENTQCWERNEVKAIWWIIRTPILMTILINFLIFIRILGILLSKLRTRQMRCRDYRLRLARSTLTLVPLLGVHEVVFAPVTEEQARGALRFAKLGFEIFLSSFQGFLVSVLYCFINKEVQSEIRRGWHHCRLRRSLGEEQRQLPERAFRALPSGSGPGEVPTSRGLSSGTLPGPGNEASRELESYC

[2] = target: human GLP-1 receptor (human, UniProt P43220 24-463)
[3] = target: human glucagon receptor (human, UniProt P47871 26-477)
[4] = target: human GLP-1 receptor (human, UniProt P43220 24-463); remark: listed apart in the source
[5] = target: T2, human GIP receptor (human, UniProt P48546 22-466); remark: listed apart in the source
T2 sequence (looked up): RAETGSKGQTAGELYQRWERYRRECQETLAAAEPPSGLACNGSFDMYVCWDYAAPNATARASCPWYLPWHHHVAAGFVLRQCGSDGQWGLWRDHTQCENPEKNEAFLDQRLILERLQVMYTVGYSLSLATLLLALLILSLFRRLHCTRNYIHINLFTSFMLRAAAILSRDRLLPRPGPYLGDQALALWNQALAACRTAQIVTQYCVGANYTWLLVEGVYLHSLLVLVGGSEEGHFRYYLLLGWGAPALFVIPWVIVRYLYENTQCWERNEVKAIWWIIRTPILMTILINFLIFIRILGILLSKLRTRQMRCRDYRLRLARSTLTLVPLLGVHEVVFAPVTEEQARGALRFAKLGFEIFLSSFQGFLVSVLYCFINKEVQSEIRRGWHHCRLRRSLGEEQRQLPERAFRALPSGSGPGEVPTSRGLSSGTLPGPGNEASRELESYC

B1: Example 30 (peptide)
peptide: YXEGTXTSDXSIXLDXKAQXEFIXXLIEGGKSSGAPPPS
modifications: Aib2, αMeF(2F)6, 4Pal10, αMeL13, Orn16, Aib20, D-Glu24, αMeY25, K17 and K31: K(AEEA3-(γ-Glu)-CO-(CH2)12-CO2H), C-terminal NH2
- EC50, cAMP [1]: 0.0175 nM
- EC50, cAMP [2]: 2.27 nM
- EC50, cAMP [3]: > 9950 nM

B2: Example 102 (peptide)
peptide: YXEGTXTSDXSIXLDXKGQXEFIXXLIEGGKSSGAPPPS
modifications: Aib2, αMeF(2F)6, 4Pal10, αMeL13, Orn16, Aib20, D-Glu24, αMeY25, K17 and K31: K(AEEA2-(γ-Glu)-CO-(CH2)12-CO2H), C-terminal NH2
- EC50, cAMP [2]: 19.1 nM
- EC50, cAMP [3]: > 9950 nM

B3: Example 464 (peptide)
peptide: YXEGTXTSDXXIXLDXQAQXEFIKXLIKGGPSSGAPPPS
modifications: Y-Aib-EGT-αMeF(2F)-TSD-4Pal-Aib-I-αMeL-LD-Orn-QAQ-Aib-EFIK(2-[2-(2-Amino-ethoxy)-ethoxy]-acetyl)3-(γ-Glu)-(10-(4-carboxyphenoxy)decanoyl)-αMeY-LIK((2-[2-(2-Amino-ethoxy)-ethoxy]-acetyl)3-(γ-Glu)-(10-(4-carboxyphenoxy)decanoyl)GGPSSGAPPPS-NH2)
- cAMP EC50 (1.0% HSA) [4]: 4.48 nM
- cAMP EC50 (1.0% HSA) [5]: 0.316 nM
- cAMP Emax (1.0% HSA) [5]: 95.5%

B4: Example 22 (peptide)
peptide: YXEGTXTSDXSIXLDXKAQXEFIKXLIEGGPSSGAPPPS
modifications: Aib2, αMeF(2F)6, 4Pal10, αMeL13, Orn16, Aib20, αMeY25, K17 and K24: K(AEEA2-(γ-Glu)-CO-(CH2)14-CH3), C-terminal NH2
- EC50, cAMP [1]: 0.00656 nM
- EC50, cAMP [2]: 0.0153 nM
- EC50, cAMP [3]: > 9950 nM

B5: Example 10 (peptide)
peptide: YXEGTXTSDXSIXLDXKAQXEFIXXLIEGGKSSGAPPPS
modifications: Aib2, αMeF(2F)6, 4Pal10, αMeL13, Orn16, Aib20, D-Glu24, αMeY25, K17 and K31: K(AEEA2-(10-(4-carboxyphenoxy)decanoyl)), C-terminal NH2
- EC50, cAMP [1]: 0.0106 nM
- EC50, cAMP [3]: > 9950 nM

B6: Example 27 (peptide)
peptide: YXEGTXTSDKSIXLDXKAQXEFIXXLIEGGPSSGAPPPS
modifications: Aib2, αMeF(2F)6, αMeL13, Orn16, Aib20, D-Glu24, αMeY25, K10 and K17: K(AEEA2-(γ-Glu)-CO-(CH2)12-CO2H), C-terminal NH2
- EC50, cAMP [1]: 0.116 nM
- Emax, cAMP [1]: 88.8%
- EC50, cAMP [2]: 2.77 nM
- EC50, cAMP [3]: > 9950 nM

B7: Example 31 (peptide)
peptide: YXEGTXTSDXSIXLDXKAQXEFIXXLIEGGKSSGAPPPS
modifications: Aib2, αMeF(2F)6, 4Pal10, αMeL13, Orn16, Aib20, D-Glu24, αMeY25, K17 and K31: K(AEEA3-(γ-Glu)-CO-(CH2)14-CH3), C-terminal NH2
- EC50, cAMP [1]: 0.00157 nM
- EC50, cAMP [3]: > 9950 nM

B8: Example 411 (peptide)
peptide: YXEGTXTSDXXIXLDXQAQXEFIKXLIKGGPSSGAPPPS
modifications: Y-Aib-EGT-αMeF(2F)-TSD-4Pal-Aib-I-αMeL-LD-Orn-QAQ-Aib-EFIK((2-[2-(2-Amino-ethoxy)-ethoxy]-acetyl)2-(γ-Glu)-CO-(CH2)12-CO2H)-αMeY-LIK((2-[2-(2-Amino-ethoxy)-ethoxy]-acetyl)2-(γ-Glu)-CO-(CH2)12-CO2H)GGPSSGAPPPS-NH2
- cAMP EC50 (1.0% HSA) [4]: 11.4 nM
- cAMP EC50 (1.0% HSA) [5]: 1.09 nM

B9: Example 26 (peptide)
peptide: YXEGTXTSDXSIXLDXIAQXEFIXXLIKGGKSSGAPPPS
modifications: Aib2, αMeF(2F)6, 4Pal10, αMeL13, Orn16, Aib20, D-Glu24, αMeY25, K28 and K31: K(AEEA2-(γ-Glu)-CO-(CH2)14-CH3), C-terminal NH2
- EC50, cAMP [1]: 0.0218 nM
- EC50, cAMP [2]: 0.0711 nM
- EC50, cAMP [3]: > 9950 nM

B10: Example 403 (peptide)
peptide: YXEGTXTSDXXIXLDXQAQXEFIKXLIKGGPSSGAPPPS
modifications: Y-Aib-EGT-αMeF(2F)-TSD-4Pal-Aib-I-αMeL-LD-Orn-QAQ-Aib-EFIK((2-[2-(2-Amino-ethoxy)-ethoxy]-acetyl)2-(γ-Glu)-(10-(4-carboxyphenoxy)decanoyl))-αMeY-LIK((2-[2-(2-Amino-ethoxy)-ethoxy]-acetyl)2-(γ-Glu)-(10-(4-carboxyphenoxy)decanoyl))GGPSSGAPPPS-NH2
- cAMP EC50 (1.0% HSA) [4]: 7.31 nM
- cAMP EC50 (1.0% HSA) [5]: 0.711 nM
- cAMP Emax (1.0% HSA) [5]: 91.7%

B11: Example 6 (peptide)
peptide: YXEGTXTSDXSIXLDXKAQXEFIXXLIEGGKSSGAPPPS
modifications: Aib2, αMeF(2F)6, 4Pal10, αMeL13, Orn16, Aib20, D-Glu24, αMeY25, K17 and K31: K(AEEA2-(γ-Glu)-CO-(CH2)10-CO2H), C-terminal NH2
- EC50, cAMP [1]: 0.0477 nM
- EC50, cAMP [2]: 2.3 nM
- EC50, cAMP [3]: > 9950 nM

B12: Example 24 (peptide)
peptide: YXEGTXTSDXSIXLDXKAQXEFIXXLIEGKPSSGAPPPS
modifications: Aib2, αMeF(2F)6, 4Pal10, αMeL13, Orn16, Aib20, D-Glu24, αMeY25, K17 and K30: K(AEEA2-(γ-Glu)-CO-(CH2)14-CH3), C-terminal NH2
- EC50, cAMP [1]: 0.00266 nM
- EC50, cAMP [2]: 0.0063 nM
- EC50, cAMP [3]: > 9950 nM

B13: Example 400 (peptide)
peptide: Y[Aib]EGT[αMePhe(2-F)]TSDV[Aib]I[αMeL]LD[Orn]IAQ[Aib]EFIK([AEEA-γGlu-C14 diacid])[αMeY]LIK([AEEA-γGlu-C14 diacid])GGPSSGAPPPS-NH2
modifications: N-terminus assumed
SMILES: CC[C@H](C)[C@H](NC(=O)[C@H](CCCN)NC(=O)[C@H](CC(=O)O)NC(=O)[C@H](CC(C)C)NC(=O)[C@](C)(CC(C)C)NC(=O)[C@@H](NC(=O)C(C)(C)NC(=O)[C@@H](NC(=O)[C@H](CC(=O)O)NC(=O)[C@H](CO)NC(=O)[C@@H](NC(=O)[C@](C)(Cc1ccccc1F)NC(=O)[C@@H](NC(=O)CNC(=O)[C@H](CCC(=O)O)NC(=O)C(C)(C)NC(=O)[C@@H](N)Cc1ccc(O)cc1)[C@@H](C)O)[C@@H](C)O)C(C)C)[C@@H](C)CC)C(=O)N[C@@H](C)C(=O)N[C@@H](CCC(N)=O)C(=O)NC(C)(C)C(=O)N[C@@H](CCC(=O)O)C(=O)N[C@@H](Cc1ccccc1)C(=O)N[C@H](C(=O)N[C@@H](CCCCNC(=O)COCCOCCNC(=O)CC[C@H](NC(=O)CCCCCCCCCCCCC(=O)O)C(=O)O)C(=O)N[C@@](C)(Cc1ccc(O)cc1)C(=O)N[C@@H](CC(C)C)C(=O)N[C@H](C(=O)N[C@@H](CCCCNC(=O)COCCOCCNC(=O)CC[C@H](NC(=O)CCCCCCCCCCCCC(=O)O)C(=O)O)C(=O)NCC(=O)NCC(=O)N1CCC[C@H]1C(=O)N[C@@H](CO)C(=O)N[C@@H](CO)C(=O)NCC(=O)N[C@@H](C)C(=O)N1CCC[C@H]1C(=O)N1CCC[C@H]1C(=O)N1CCC[C@H]1C(=O)N[C@@H](CO)C(N)=O)[C@@H](C)CC)[C@@H](C)CC
- cAMP EC50 (1.0% HSA) [4]: 107 nM
- cAMP EC50 (1.0% HSA) [5]: 16.7 nM
